Sequences and labels used below:
B1: CIgG4D1A1(G4S)1 (Fc fusion)
chain 1: GPPCPPCPAPEFLGGPSVFLFPPKPKDTLMISRTPEVTCVVVDVSQEDPEVQFNWYVDGVEVHNAKTKPREEQFNSTYRVVSVLTVLHQDWLNGKEYKCKVSNKGLPSSIEKTISKAKGQPREPQVYTLPPCQEEMTKNQVSLWCLVKGFYPSDIAVEWESNGQPENNYKTTPPVLDSDGSFFLYSRLTVDKSRWQEGNVFSCSVMHEALHNHYTQKSLSLSLGKGGGGSDVQLQESGGGLVQAGGSLRLSCAASGLTFSRCDMGWFRQAPGKEREFVARISANGASTHYADFVKGRFTISRDNAKNTVYLQMNYLKPEDTAVYICAAARVPVTWQLYDYWGQGTQVTVS
chain 2: GPPCPPCPAPEFLGGPSVFLFPPKPKDTLMISRTPEVTCVVVDVSQEDPEVQFNWYVDGVEVHNAKTKPREEQFNSTYRVVSVLTVLHQDWLNGKEYKCKVSNKGLPSSIEKTISKAKGQPREPQVCTLPPSQEEMTKNQVSLSCAVKGFYPSDIAVEWESNGQPENNYKTTPPVLDSDGSFFLVSRLTVDKSRWQEGNVFSCSVMHEALHNHYTQKSLSLSLGKGGGGSEVQLLESGGGLVQPGGSLRLSCAASGFTFGNYDMAWVRQAPGKRPEWVSSIDTGGDITHYADSVKGRFTISRDNAKNTLYLQMNSLRPEDTAVYWCATDEEYALGPNEFDYYGQGTLVTVSS
B2: CIgG4D2A1(G4S)1 (Fc fusion)
chain 1: GPPCPPCPAPEFLGGPSVFLFPPKPKDTLMISRTPEVTCVVVDVSQEDPEVQFNWYVDGVEVHNAKTKPREEQFNSTYRVVSVLTVLHQDWLNGKEYKCKVSNKGLPSSIEKTISKAKGQPREPQVYTLPPCQEEMTKNQVSLWCLVKGFYPSDIAVEWESNGQPENNYKTTPPVLDSDGSFFLYSRLTVDKSRWQEGNVFSCSVMHEALHNHYTQKSLSLSLGKGGGGSDVQLQESGGGLVEAGGSLRLSCVASGRTFSGWSMGWFRQAPGKEREFVAAISWVGSWIGGTVYSNSVKGRFTISRDNARTTVYLQMNSLKPEDTAVYFCAAANSETPRIFASEYDYWGQGTQVTVS
chain 2: B1 chain 2
B3: CIgG4B3A1(G4S)3 (Fc fusion)
chain 1: GPPCPPCPAPEFLGGPSVFLFPPKPKDTLMISRTPEVTCVVVDVSQEDPEVQFNWYVDGVEVHNAKTKPREEQFNSTYRVVSVLTVLHQDWLNGKEYKCKVSNKGLPSSIEKTISKAKGQPREPQVYTLPPCQEEMTKNQVSLWCLVKGFYPSDIAVEWESNGQPENNYKTTPPVLDSDGSFFLYSRLTVDKSRWQEGNVFSCSVMHEALHNHYTQKSLSLSLGKGGGGSGGGGSGGGGSDVQLQESGGGLVQAGGSLRLSCAASGFIFRLAGMSWVRQAPGKGFEWVSGITMDGSTTNYADSVKGRFTISRDNSKNRLYLQMNSLKPEDTAVYYCARGAKGGYNDPRGQGTQVTVS
chain 2: GPPCPPCPAPEFLGGPSVFLFPPKPKDTLMISRTPEVTCVVVDVSQEDPEVQFNWYVDGVEVHNAKTKPREEQFNSTYRVVSVLTVLHQDWLNGKEYKCKVSNKGLPSSIEKTISKAKGQPREPQVCTLPPSQEEMTKNQVSLSCAVKGFYPSDIAVEWESNGQPENNYKTTPPVLDSDGSFFLVSRLTVDKSRWQEGNVFSCSVMHEALHNHYTQKSLSLSLGKGGGGSGGGGSGGGGSEVQLLESGGGLVQPGGSLRLSCAASGFTFGNYDMAWVRQAPGKRPEWVSSIDTGGDITHYADSVKGRFTISRDNAKNTLYLQMNSLRPEDTAVYWCATDEEYALGPNEFDYYGQGTLVTVSS
notes: also called CIgG4B3A1(GS)3
B4: CIgG4D1A1(G4S)3 (Fc fusion)
chain 1: GPPCPPCPAPEFLGGPSVFLFPPKPKDTLMISRTPEVTCVVVDVSQEDPEVQFNWYVDGVEVHNAKTKPREEQFNSTYRVVSVLTVLHQDWLNGKEYKCKVSNKGLPSSIEKTISKAKGQPREPQVYTLPPCQEEMTKNQVSLWCLVKGFYPSDIAVEWESNGQPENNYKTTPPVLDSDGSFFLYSRLTVDKSRWQEGNVFSCSVMHEALHNHYTQKSLSLSLGKGGGGSGGGGSGGGGSDVQLQESGGGLVQAGGSLRLSCAASGLTFSRCDMGWFRQAPGKEREFVARISANGASTHYADFVKGRFTISRDNAKNTVYLQMNYLKPEDTAVYICAAARVPVTWQLYDYWGQGTQVTVS
chain 2: B3 chain 2
B5: CIgG4B3A1(G4S)2 (Fc fusion)
chain 1: GPPCPPCPAPEFLGGPSVFLFPPKPKDTLMISRTPEVTCVVVDVSQEDPEVQFNWYVDGVEVHNAKTKPREEQFNSTYRVVSVLTVLHQDWLNGKEYKCKVSNKGLPSSIEKTISKAKGQPREPQVYTLPPCQEEMTKNQVSLWCLVKGFYPSDIAVEWESNGQPENNYKTTPPVLDSDGSFFLYSRLTVDKSRWQEGNVFSCSVMHEALHNHYTQKSLSLSLGKGGGGSGGGGSDVQLQESGGGLVQAGGSLRLSCAASGFIFRLAGMSWVRQAPGKGFEWVSGITMDGSTTNYADSVKGRFTISRDNSKNRLYLQMNSLKPEDTAVYYCARGAKGGYNDPRGQGTQVTVS
chain 2: GPPCPPCPAPEFLGGPSVFLFPPKPKDTLMISRTPEVTCVVVDVSQEDPEVQFNWYVDGVEVHNAKTKPREEQFNSTYRVVSVLTVLHQDWLNGKEYKCKVSNKGLPSSIEKTISKAKGQPREPQVCTLPPSQEEMTKNQVSLSCAVKGFYPSDIAVEWESNGQPENNYKTTPPVLDSDGSFFLVSRLTVDKSRWQEGNVFSCSVMHEALHNHYTQKSLSLSLGKGGGGSGGGGSEVQLLESGGGLVQPGGSLRLSCAASGFTFGNYDMAWVRQAPGKRPEWVSSIDTGGDITHYADSVKGRFTISRDNAKNTLYLQMNSLRPEDTAVYWCATDEEYALGPNEFDYYGQGTLVTVSS
notes: also called CIgG4B3A1(GS)2
B6: CIgG4D1A1(G4S)2 (Fc fusion)
chain 1: GPPCPPCPAPEFLGGPSVFLFPPKPKDTLMISRTPEVTCVVVDVSQEDPEVQFNWYVDGVEVHNAKTKPREEQFNSTYRVVSVLTVLHQDWLNGKEYKCKVSNKGLPSSIEKTISKAKGQPREPQVYTLPPCQEEMTKNQVSLWCLVKGFYPSDIAVEWESNGQPENNYKTTPPVLDSDGSFFLYSRLTVDKSRWQEGNVFSCSVMHEALHNHYTQKSLSLSLGKGGGGSGGGGSDVQLQESGGGLVQAGGSLRLSCAASGLTFSRCDMGWFRQAPGKEREFVARISANGASTHYADFVKGRFTISRDNAKNTVYLQMNYLKPEDTAVYICAAARVPVTWQLYDYWGQGTQVTVS
chain 2: B5 chain 2
B7: CIgG4D1A1(RS) (Fc fusion)
chain 1: GPPCPPCPAPEFLGGPSVFLFPPKPKDTLMISRTPEVTCVVVDVSQEDPEVQFNWYVDGVEVHNAKTKPREEQFNSTYRVVSVLTVLHQDWLNGKEYKCKVSNKGLPSSIEKTISKAKGQPREPQVYTLPPCQEEMTKNQVSLWCLVKGFYPSDIAVEWESNGQPENNYKTTPPVLDSDGSFFLYSRLTVDKSRWQEGNVFSCSVMHEALHNHYTQKSLSLSLGKRSDVQLQESGGGLVQAGGSLRLSCAASGLTFSRCDMGWFRQAPGKEREFVARISANGASTHYADFVKGRFTISRDNAKNTVYLQMNYLKPEDTAVYICAAARVPVTWQLYDYWGQGTQVTVS
chain 2: GPPCPPCPAPEFLGGPSVFLFPPKPKDTLMISRTPEVTCVVVDVSQEDPEVQFNWYVDGVEVHNAKTKPREEQFNSTYRVVSVLTVLHQDWLNGKEYKCKVSNKGLPSSIEKTISKAKGQPREPQVCTLPPSQEEMTKNQVSLSCAVKGFYPSDIAVEWESNGQPENNYKTTPPVLDSDGSFFLVSRLTVDKSRWQEGNVFSCSVMHEALHNHYTQKSLSLSLGKRSEVQLLESGGGLVQPGGSLRLSCAASGFTFGNYDMAWVRQAPGKRPEWVSSIDTGGDITHYADSVKGRFTISRDNAKNTLYLQMNSLRPEDTAVYWCATDEEYALGPNEFDYYGQGTLVTVSS
B8: CIgG4D2A1(RS) (Fc fusion)
chain 1: GPPCPPCPAPEFLGGPSVFLFPPKPKDTLMISRTPEVTCVVVDVSQEDPEVQFNWYVDGVEVHNAKTKPREEQFNSTYRVVSVLTVLHQDWLNGKEYKCKVSNKGLPSSIEKTISKAKGQPREPQVYTLPPCQEEMTKNQVSLWCLVKGFYPSDIAVEWESNGQPENNYKTTPPVLDSDGSFFLYSRLTVDKSRWQEGNVFSCSVMHEALHNHYTQKSLSLSLGKRSDVQLQESGGGLVEAGGSLRLSCVASGRTFSGWSMGWFRQAPGKEREFVAAISWVGSWIGGTVYSNSVKGRFTISRDNARTTVYLQMNSLKPEDTAVYFCAAANSETPRIFASEYDYWGQGTQVTVS
chain 2: B7 chain 2

For this assay, the target named is T1, recombinant human IgE (human, UniProt P01854-1 1-428).
T1 construct: made in-house (ALK); preloaded on immobilised FcεRIα in the displacement ELISA
T1 sequence (P01854 other isoform, or with tags, fused parts or gaps): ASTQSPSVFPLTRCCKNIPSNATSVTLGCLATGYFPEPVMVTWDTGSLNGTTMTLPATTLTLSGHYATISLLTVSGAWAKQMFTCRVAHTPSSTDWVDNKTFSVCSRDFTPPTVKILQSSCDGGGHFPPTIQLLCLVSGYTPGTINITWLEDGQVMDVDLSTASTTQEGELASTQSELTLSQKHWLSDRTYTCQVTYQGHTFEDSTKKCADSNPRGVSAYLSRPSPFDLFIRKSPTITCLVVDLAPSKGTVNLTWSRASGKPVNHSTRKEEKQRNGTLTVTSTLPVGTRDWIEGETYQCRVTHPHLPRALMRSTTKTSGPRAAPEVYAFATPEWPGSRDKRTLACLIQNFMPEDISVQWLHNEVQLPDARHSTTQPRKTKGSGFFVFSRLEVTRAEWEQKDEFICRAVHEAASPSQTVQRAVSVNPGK
As to the kind of experiment: IgE-FcεRIα displacement ELISA. The gist of the method: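 Streptavidin-coated plates carried site-specifically biotinylated recombinant human FcεRIα, loaded with recombinant human IgE at 13 ng/ml. sdAbs in a pM–μM series were added for 1 h, and displaced IgE was washed off. Percent displacement was the signal reduction versus the no-sdAb control, giving EC50 and maximal effect.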
(An ELISA detects its analyte on a solid surface through an enzyme-linked reagent.)
Consider B1, for which the EC50 turned out to be 52 nM and the Max effect is 90%.

Take B2: the concentration giving a half-maximal response (EC50) was 25 nM and the Max effect is greater than 95%.

As to B3, the EC50 stood at 5.4 nM and the Max effect was 95%.

With B4, the EC50 came out at 14 nM and the Max effect was greater than 95%.

On to B5, for which the EC50 worked out at 32 nM and the Max effect was 85%.

For the molecule B6, the EC50 worked out at 30 nM and the Max effect is greater than 95%.

For B7, the Max effect came to 30%.

With B8, the Max effect stood at 35%.

For orientation: EC50 means the concentration at which the effect is half-maximal.

(Values after patent publication US20250171562A1 (ALK ABELL, published 2025).)
